The text below walks through data of article PMC10421740, “A universal deep-learning model for zinc finger design enables transcription factor reprogramming”.

Data set [1] has as its target ZIM3 reprogrammed with array DPH1_51 (synthetic construct, UniProt Q96PE6 1-166). Description: Zn; HEK293T, RT-qPCR 3 days after transfection.
In data set [2] the target is ZIM3 reprogrammed with array Tet3 Rev (synthetic construct, UniProt Q96PE6 1-166). Description: Zn; HEK293T, 7x tetO CMV eGFP reporter.
Data set [3] deals with T1, KLF6 reprogrammed with array Tet4 Rev (synthetic construct, UniProt Q99612 1-199).
T1 chain: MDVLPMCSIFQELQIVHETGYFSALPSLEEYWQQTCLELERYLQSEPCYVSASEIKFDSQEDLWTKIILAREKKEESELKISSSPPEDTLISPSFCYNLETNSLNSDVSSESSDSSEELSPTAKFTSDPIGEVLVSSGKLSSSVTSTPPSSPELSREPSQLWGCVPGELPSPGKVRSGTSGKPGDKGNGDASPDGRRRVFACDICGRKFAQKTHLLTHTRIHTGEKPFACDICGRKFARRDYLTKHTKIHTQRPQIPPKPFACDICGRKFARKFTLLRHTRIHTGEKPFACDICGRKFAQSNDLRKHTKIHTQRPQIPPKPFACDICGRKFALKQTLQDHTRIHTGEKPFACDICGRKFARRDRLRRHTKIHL
Description: Zn; HEK293T, 7x tetO minimal CMV GFP reporter.

Data set [4] deals with T2, KLF6 reprogrammed with array Tet3 Rev (synthetic construct, UniProt Q99612 1-199).
T2 chain: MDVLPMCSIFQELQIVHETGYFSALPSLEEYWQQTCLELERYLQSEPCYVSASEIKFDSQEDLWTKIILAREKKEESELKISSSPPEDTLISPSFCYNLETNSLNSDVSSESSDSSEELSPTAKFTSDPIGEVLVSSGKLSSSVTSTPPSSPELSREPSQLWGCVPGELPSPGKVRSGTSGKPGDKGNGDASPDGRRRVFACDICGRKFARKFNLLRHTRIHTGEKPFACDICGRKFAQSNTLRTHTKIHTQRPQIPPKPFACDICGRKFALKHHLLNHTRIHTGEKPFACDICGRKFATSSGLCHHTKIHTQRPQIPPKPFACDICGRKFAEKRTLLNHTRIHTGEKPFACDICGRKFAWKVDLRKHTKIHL
Kind of data set: Zn; HEK293T, 7x tetO minimal CMV GFP reporter.

Data set [5] has as its target KLF6 reprogrammed with array CDKN1C_224 (synthetic construct, UniProt Q99612 1-199). Kind of data set: Zn; HEK293T, RT-qPCR 3 days after transfection. On the technique in general: Quantitative PCR measures a nucleic acid by following its amplification.
The target of data set [6] is ZIM3 reprogrammed with array DPH1_99 (synthetic construct, UniProt Q96PE6 1-166). Description: Zn; HEK293T, RT-qPCR 3 days after transfection.
Data set [7] deals with ZIM3 reprogrammed with array DPH1_225 (synthetic construct, UniProt Q96PE6 1-166). Description: Zn; HEK293T, RT-qPCR 3 days after transfection.
In data set [8] the target is ZIM3 reprogrammed with array DPH1_201 (synthetic construct, UniProt Q96PE6 1-166). Description: Zn; HEK293T, RT-qPCR 3 days after transfection.
Data set [9] deals with ZIM3 reprogrammed with array DPH1_75 (synthetic construct, UniProt Q96PE6 1-166). Kind of data set: Zn; HEK293T, RT-qPCR 3 days after transfection.
Data set [10] concerns the target KLF6 reprogrammed with array CDKN1C_125 (synthetic construct, UniProt Q99612 1-199). Description: Zn; HEK293T, RT-qPCR 3 days after transfection.
For data set [11], the target named is KLF6 reprogrammed with array CDKN1C_125 F1-6 (synthetic construct, UniProt Q99612 1-199). Description: Zn; HEK293T, RT-qPCR 3 days after transfection.
The target of data set [12] is T3, ZFN pair 20BC_selected + 20ED_selected (synthetic construct, UniProt P14870;P14870 384-579;384-579).
T3 chain 1: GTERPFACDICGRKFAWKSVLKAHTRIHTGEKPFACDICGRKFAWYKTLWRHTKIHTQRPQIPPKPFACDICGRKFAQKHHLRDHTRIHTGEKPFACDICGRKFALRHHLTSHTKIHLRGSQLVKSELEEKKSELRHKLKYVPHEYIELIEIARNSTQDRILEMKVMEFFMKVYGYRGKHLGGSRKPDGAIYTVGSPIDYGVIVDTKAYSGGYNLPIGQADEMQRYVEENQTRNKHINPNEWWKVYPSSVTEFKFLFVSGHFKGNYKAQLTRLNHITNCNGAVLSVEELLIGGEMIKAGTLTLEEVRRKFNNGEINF
T3 chain 2: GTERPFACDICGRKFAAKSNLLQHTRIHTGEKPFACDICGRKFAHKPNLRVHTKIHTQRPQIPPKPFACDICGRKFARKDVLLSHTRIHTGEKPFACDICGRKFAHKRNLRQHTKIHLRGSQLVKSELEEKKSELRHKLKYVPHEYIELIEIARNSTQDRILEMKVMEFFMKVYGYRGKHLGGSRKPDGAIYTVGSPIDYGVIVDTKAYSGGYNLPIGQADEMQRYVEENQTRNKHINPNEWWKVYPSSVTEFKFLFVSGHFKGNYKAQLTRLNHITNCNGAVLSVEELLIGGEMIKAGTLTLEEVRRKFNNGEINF
Description: Zn; U2OS eGFP disruption, 3 days after nucleofection. The note with it: tags: N-terminal 3xFLAG and SV40 NLS (kept in the assay, left out here); copies: 1;1.

Data set [13] deals with ZFN pair 20BC_designed + 20ED_designed (synthetic construct, UniProt P14870;P14870 384-579;384-579). The description is as above. The settings on record: tags: N-terminal 3xFLAG and SV40 NLS (kept in the assay, left out here); copies: 1;1.
Data set [14] addresses KLF6 reprogrammed with array CDKN1C_150 (synthetic construct, UniProt Q99612 1-199). Kind of data set: Zn; HEK293T, RT-qPCR 3 days after transfection.
Data set [15] has as its target ZIM3 reprogrammed with array DPH1_151 (synthetic construct, UniProt Q96PE6 1-166). Description: Zn; HEK293T, RT-qPCR 3 days after transfection.
Data set [16] has as its target T4, KLF6 reprogrammed with array CDKN1C_76 (synthetic construct, UniProt Q99612 1-199).
T4 chain: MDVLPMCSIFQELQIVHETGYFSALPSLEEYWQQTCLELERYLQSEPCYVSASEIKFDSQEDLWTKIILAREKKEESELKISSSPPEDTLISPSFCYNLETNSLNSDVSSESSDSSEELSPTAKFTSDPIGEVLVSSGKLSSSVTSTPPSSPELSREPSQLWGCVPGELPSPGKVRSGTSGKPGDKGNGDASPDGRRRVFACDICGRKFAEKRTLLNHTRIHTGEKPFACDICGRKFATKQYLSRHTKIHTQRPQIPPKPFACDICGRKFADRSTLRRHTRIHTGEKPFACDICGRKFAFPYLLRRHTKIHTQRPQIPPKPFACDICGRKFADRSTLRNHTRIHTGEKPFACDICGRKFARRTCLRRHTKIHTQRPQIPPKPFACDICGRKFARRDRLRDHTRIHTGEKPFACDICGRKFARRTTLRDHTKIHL
Description: Zn; HEK293T, RT-qPCR 3 days after transfection.

For data set [17], the target named is T5, KLF6 reprogrammed with array CDKN1C_172 (synthetic construct, UniProt Q99612 1-199).
T5 chain: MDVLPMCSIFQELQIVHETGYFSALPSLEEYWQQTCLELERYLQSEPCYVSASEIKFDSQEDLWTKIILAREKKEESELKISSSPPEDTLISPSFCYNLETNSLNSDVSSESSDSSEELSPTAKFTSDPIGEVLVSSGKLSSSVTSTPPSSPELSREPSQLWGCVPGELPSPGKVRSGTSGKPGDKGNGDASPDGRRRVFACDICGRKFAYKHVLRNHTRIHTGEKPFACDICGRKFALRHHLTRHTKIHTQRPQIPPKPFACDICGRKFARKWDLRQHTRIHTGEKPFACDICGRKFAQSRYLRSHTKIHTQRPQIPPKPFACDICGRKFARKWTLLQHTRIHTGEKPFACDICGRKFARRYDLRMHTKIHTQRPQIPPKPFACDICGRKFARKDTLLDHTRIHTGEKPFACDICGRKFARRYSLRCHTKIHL
Description: Zn; HEK293T, RT-qPCR 3 days after transfection.

Data set [18] concerns the target KLF6 reprogrammed with array CDKN1C_102 (synthetic construct, UniProt Q99612 1-199). Kind of data set: Zn; HEK293T, RT-qPCR 3 days after transfection.
Data set [19] has as its target ZIM3 reprogrammed with array DPH1_126 (synthetic construct, UniProt Q96PE6 1-166). Kind of data set: Zn; HEK293T, RT-qPCR 3 days after transfection.
The target in data set [20] is ZIM3 reprogrammed with array DPH1_24 (synthetic construct, UniProt Q96PE6 1-166). Kind of data set: Zn; HEK293T, RT-qPCR 3 days after transfection.
ZIM3 reprogrammed with array DPH1_24, sequence (Q96PE6 other isoform, or with tags, fused parts or gaps): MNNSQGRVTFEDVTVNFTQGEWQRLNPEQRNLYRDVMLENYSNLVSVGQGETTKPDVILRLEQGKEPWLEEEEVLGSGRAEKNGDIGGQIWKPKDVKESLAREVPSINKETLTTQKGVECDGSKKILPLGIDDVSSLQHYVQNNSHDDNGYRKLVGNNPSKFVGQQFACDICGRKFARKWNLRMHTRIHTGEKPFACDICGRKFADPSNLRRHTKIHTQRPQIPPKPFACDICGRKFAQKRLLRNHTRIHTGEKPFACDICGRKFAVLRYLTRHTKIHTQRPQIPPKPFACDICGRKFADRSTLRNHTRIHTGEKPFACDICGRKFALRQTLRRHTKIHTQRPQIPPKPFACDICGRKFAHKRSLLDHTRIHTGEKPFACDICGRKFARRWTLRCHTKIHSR

ZIM3 reprogrammed with array DPH1_126, sequence (Q96PE6 other isoform, or with tags, fused parts or gaps): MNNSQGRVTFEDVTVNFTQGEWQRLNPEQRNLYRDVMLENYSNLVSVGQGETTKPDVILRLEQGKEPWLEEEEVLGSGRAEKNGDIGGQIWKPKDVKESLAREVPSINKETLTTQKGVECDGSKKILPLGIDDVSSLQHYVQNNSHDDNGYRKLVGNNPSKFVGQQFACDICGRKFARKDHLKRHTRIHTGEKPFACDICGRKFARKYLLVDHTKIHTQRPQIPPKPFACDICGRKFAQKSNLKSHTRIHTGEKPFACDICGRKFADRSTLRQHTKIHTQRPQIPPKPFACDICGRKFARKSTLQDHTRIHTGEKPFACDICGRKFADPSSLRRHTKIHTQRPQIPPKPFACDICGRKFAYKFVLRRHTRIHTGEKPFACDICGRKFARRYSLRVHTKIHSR
ZIM3 reprogrammed with array Tet3 Rev, sequence (Q96PE6 other isoform, or with tags, fused parts or gaps): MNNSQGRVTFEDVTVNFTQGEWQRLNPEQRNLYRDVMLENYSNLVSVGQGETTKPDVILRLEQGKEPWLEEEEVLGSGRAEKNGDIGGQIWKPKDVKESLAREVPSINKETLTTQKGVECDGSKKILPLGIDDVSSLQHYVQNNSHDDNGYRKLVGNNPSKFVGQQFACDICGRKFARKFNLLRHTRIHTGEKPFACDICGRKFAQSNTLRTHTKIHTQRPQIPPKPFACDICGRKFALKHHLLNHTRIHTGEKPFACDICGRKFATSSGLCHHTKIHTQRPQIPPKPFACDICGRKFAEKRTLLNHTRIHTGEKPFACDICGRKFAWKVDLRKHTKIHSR
ZIM3 reprogrammed with array DPH1_151, sequence (Q96PE6 other isoform, or with tags, fused parts or gaps): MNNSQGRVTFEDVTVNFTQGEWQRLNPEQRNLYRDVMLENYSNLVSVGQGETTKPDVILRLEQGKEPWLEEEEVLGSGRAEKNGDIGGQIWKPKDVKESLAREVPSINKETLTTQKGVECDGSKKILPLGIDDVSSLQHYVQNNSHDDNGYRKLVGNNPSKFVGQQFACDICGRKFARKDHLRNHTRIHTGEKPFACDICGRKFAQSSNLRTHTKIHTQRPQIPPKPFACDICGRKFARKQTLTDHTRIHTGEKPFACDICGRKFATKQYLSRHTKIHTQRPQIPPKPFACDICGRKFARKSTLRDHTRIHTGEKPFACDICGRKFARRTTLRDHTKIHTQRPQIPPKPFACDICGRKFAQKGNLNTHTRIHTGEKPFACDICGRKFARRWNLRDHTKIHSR
ZIM3 reprogrammed with array DPH1_75, sequence (Q96PE6 other isoform, or with tags, fused parts or gaps): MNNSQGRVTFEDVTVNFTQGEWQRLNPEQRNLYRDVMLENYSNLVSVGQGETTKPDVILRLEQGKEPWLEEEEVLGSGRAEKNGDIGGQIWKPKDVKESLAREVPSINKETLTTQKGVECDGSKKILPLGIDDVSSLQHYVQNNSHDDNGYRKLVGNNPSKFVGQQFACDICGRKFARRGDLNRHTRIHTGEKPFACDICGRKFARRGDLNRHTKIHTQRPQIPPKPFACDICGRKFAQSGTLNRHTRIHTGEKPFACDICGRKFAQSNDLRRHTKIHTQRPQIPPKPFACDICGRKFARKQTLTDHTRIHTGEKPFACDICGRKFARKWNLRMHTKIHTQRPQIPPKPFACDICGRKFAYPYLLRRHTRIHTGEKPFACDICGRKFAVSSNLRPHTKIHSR
ZIM3 reprogrammed with array DPH1_51, sequence (Q96PE6 other isoform, or with tags, fused parts or gaps): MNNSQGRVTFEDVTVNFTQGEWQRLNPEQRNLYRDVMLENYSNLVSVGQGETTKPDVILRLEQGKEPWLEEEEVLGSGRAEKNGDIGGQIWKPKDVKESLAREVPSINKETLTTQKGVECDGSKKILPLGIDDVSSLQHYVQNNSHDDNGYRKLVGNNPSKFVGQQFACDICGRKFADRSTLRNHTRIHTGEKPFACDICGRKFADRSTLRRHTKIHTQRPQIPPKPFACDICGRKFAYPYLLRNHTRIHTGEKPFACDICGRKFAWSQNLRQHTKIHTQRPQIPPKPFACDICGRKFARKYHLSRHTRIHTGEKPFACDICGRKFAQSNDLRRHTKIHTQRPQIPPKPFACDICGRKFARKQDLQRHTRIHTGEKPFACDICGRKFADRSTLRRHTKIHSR
ZIM3 reprogrammed with array DPH1_225, sequence (Q96PE6 other isoform, or with tags, fused parts or gaps): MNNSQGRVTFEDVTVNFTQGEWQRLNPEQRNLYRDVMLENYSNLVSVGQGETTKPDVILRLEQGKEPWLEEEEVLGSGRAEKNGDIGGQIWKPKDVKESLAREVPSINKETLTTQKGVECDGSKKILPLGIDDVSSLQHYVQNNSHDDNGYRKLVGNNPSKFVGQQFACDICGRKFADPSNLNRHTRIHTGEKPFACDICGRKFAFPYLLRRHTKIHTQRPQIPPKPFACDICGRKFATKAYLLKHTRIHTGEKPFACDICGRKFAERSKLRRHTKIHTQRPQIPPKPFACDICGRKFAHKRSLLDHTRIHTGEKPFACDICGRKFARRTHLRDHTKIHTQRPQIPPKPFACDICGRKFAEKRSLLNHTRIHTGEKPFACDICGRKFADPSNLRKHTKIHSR
ZIM3 reprogrammed with array DPH1_99, sequence (Q96PE6 other isoform, or with tags, fused parts or gaps): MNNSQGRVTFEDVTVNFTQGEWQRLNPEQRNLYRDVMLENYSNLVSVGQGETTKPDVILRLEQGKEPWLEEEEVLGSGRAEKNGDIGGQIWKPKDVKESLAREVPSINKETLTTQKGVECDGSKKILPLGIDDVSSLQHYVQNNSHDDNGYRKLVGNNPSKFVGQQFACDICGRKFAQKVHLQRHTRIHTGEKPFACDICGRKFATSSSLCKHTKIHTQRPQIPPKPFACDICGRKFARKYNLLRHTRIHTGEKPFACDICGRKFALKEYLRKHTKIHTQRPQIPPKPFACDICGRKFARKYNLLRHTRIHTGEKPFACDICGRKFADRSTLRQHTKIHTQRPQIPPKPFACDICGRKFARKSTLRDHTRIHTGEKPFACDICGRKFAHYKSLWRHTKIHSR
ZIM3 reprogrammed with array DPH1_201, sequence (Q96PE6 other isoform, or with tags, fused parts or gaps): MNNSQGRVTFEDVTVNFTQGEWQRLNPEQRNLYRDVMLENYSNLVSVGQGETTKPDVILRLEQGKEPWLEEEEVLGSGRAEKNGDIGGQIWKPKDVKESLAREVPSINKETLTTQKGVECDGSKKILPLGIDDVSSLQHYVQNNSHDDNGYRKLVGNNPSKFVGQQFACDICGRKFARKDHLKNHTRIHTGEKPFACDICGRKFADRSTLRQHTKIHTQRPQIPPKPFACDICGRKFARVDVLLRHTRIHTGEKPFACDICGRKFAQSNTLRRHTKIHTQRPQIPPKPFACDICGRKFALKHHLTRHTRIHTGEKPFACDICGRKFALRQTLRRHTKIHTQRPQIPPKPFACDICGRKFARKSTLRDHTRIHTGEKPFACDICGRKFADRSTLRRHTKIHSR

B1: DPH1_51 (dsDNA)
DNA 1: ACCTCTGCCAGGGCCGTCTCGGCCGCCC
DNA 2: GGGCGGCCGAGACGGCCCTGGCAGAGGT
On to B1, for which the binding signal in data set [1] is ~0.61 relative expression (lower = more activity, repressor).

B2: tetO (dsDNA)
DNA 1: TCTCCCTATCAGTGATAGAGAC
DNA 2: GTCTCTATCACTGATAGGGAGA
B2: the binding signal is ~0.23 normalised eGFP fluorescence (lower = more activity, repressor) in data set [2]; ~2500 mean GFP fluorescence (higher = more activity) in data set [3]; ~41000 mean GFP fluorescence (higher = more activity) in data set [4].

B3: CDKN1C_224 (dsDNA)
DNA 1: GCTAATCGCGGCCGGGCCCGCGCGCACG
DNA 2: CGTGCGCGCGGGCCCGGCCGCGATTAGC
Take B3: in data set [5], the binding signal is ~2.5 relative expression (higher = more activity).

B4: DPH1_99 (dsDNA)
DNA 1: GCCCCGCCCCGAGATGCGAGGTCTGGAG
DNA 2: CTCCAGACCTCGCATCTCGGGGCGGGGC
Turning to B4, the binding signal in data set [6] is ~0.68 relative expression (lower = more activity, repressor).

B5: DPH1_225 (dsDNA)
DNA 1: TACCCCTGGGCTCCGGCTGACAGCGACC
DNA 2: GGTCGCTGTCAGCCGGAGCCCAGGGGTA
With B5, in data set [7], the binding signal was ~0.62 relative expression (lower = more activity, repressor).

B6: DPH1_201 (dsDNA)
DNA 1: ACCCCGAGCTGGTGACAGCGGCCCAAGG
DNA 2: CCTTGGGCCGCTGTCACCAGCTCGGGGT
As for B6, the binding signal in data set [8] is ~0.43 relative expression (lower = more activity, repressor).

B7: DPH1_75 (dsDNA)
DNA 1: GAGGGCGCAGCGTTCCAGCACCCACCTC
DNA 2: GAGGTGGGTGCTGGAACGCTGCGCCCTC
In the case of B7, the binding signal in [9] was ~0.62 relative expression (lower = more activity, repressor).

B8: CDKN1C_125 (dsDNA)
DNA 1: GCCAATGGGCGGTGCGCGGGGGCCGGGC
DNA 2: GCCCGGCCCCCGCGCACCGCCCATTGGC
For B8, the binding signal was ~43 relative expression (higher = more activity) in data set [10] and ~16.5 relative expression (higher = more activity) in data set [11].

B9: eGFP site 20 (8 fingers) (dsDNA)
DNA 1: GAAGGGCATCGACTTCAAGGAGGACGGCAACATC
DNA 2: GATGTTGCCGTCCTCCTTGAAGTCGATGCCCTTC
Regarding B9, the binding signal in [12] is ~69 % GFP-negative cells (higher = more activity); in [13], ~17 % GFP-negative cells (higher = more activity).

B10: CDKN1C_150 (dsDNA)
DNA 1: GGCCGCGGCGGGGCGGGGCAGCGGGGCG
DNA 2: CGCCCCGCTGCCCCGCCCCGCCGCGGCC
For the molecule B10, the binding signal in [14] was ~9 relative expression (higher = more activity).

B11: DPH1_151 (dsDNA)
DNA 1: GAGAAAGGCGCCGCCGCCGTTAAAGGGG
DNA 2: CCCCTTTAACGGCGGCGGCGCCTTTCTC
As to B11, the binding signal in data set [15] is ~0.7 relative expression (lower = more activity, repressor).

B12: CDKN1C_76 (dsDNA)
DNA 1: GCGCGCCCCGGCCGCGCGCCCCGCCCCG
DNA 2: CGGGGCGGGGCGCGCGGCCGGGGCGCGC
As to B12, the binding signal in data set [16] is ~2 relative expression (higher = more activity).

B13: CDKN1C_172 (dsDNA)
DNA 1: GGGGCGGCCGCCAATCGCCGTGGTGTTG
DNA 2: CAACACCACGGCGATTGGCGGCCGCCCC
Take B13: in data set [17], the binding signal is ~3.3 relative expression (higher = more activity).

B14: CDKN1C_102 (dsDNA)
DNA 1: CGCCCCCGGTGGGTGTGCGCGCGGCCAA
DNA 2: TTGGCCGCGCGCACACCCACCGGGGGCG
Consider B14, for which the binding signal in [18] was ~2.5 relative expression (higher = more activity).

B15: DPH1_126 (dsDNA)
DNA 1: GGGGTTGGTCCTGTCCCTAACTTGGGGG
DNA 2: CCCCCAAGTTAGGGACAGGACCAACCCC
Consider B15, for which, in data set [19], the binding signal is ~0.14 relative expression (lower = more activity, repressor).

B16: DPH1_24 (dsDNA)
DNA 1: CTGCTCCGCTGCCCCGGATACGACCAGC
DNA 2: GCTGGTCGTATCCGGGGCAGCGGAGCAG
With B16, the binding signal in [20] is ~0.27 relative expression (lower = more activity, repressor).
